From patent US20230137351A1

Molecular target: human beta-Klotho/FGFR1c complex on stable AM-1D cells (human) (UniProt Q86Z14)
UniProt Q86Z14, sequence (Q86Z14 whole entry, chain 1 of 2): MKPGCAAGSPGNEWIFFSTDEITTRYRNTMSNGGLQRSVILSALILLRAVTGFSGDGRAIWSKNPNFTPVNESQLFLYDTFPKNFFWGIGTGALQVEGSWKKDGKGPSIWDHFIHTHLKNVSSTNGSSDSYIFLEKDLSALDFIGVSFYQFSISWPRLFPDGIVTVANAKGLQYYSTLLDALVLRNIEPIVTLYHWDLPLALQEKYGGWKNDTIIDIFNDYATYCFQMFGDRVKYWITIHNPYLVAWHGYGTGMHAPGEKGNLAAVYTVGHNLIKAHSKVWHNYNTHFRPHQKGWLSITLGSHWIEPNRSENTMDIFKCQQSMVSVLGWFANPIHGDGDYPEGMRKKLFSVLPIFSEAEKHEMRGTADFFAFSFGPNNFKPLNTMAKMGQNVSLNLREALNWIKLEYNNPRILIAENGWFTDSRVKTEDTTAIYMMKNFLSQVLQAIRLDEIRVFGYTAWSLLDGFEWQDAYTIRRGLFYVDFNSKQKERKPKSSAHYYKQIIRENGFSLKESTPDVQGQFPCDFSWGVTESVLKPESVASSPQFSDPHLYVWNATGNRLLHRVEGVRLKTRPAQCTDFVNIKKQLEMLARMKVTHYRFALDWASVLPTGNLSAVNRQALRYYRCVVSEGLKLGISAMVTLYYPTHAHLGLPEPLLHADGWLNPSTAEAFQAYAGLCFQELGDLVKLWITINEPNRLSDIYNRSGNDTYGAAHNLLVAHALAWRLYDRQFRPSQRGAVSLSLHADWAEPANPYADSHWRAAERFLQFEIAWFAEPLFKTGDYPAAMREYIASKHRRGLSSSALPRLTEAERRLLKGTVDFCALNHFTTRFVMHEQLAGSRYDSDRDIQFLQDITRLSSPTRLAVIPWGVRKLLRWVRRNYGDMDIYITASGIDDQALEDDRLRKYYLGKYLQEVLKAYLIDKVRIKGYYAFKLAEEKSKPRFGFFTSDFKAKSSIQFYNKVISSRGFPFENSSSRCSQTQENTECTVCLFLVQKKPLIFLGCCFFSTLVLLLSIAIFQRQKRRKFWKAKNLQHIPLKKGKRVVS
UniProt Q86Z14, sequence (P11362 22-822, chain 2 of 2, further chain): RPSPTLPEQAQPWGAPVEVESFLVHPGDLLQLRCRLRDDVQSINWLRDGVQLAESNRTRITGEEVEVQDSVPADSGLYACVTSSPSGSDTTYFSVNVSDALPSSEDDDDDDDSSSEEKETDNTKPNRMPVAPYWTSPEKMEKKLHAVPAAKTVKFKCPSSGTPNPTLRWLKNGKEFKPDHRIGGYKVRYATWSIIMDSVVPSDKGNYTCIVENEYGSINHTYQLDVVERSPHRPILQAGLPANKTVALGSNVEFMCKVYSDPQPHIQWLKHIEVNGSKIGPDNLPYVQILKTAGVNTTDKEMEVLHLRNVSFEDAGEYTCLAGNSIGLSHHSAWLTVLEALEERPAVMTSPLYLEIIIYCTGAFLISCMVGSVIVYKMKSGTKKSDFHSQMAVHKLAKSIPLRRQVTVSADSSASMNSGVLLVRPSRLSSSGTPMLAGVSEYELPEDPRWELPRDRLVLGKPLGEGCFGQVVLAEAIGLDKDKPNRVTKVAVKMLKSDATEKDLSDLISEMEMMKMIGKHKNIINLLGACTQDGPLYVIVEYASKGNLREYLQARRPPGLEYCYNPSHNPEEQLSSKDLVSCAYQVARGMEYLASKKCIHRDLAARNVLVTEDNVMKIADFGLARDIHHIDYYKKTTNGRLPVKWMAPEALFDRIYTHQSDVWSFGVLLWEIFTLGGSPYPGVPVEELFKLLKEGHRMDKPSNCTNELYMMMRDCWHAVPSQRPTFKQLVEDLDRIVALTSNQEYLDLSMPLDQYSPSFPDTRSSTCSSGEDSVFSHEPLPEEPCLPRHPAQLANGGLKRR

adipocyte pERK assay: EC50 (read off the curve) [lower row]: 0.7 nM
Substance: FGF21 (from UniProt Q9NSA1 29-209) (ligand)
